The source of these data is PMC8724787 (2021).

In experiment [1] the target is ZIKV-H/PF/2013 sE protein (aa 1-404) (Zika virus (strain H/PF/2013)). Briefly: BLI.
In experiment [2] the target is DENV3 strain H87 envelope (E) protein on virions (Dengue virus 3 (strain H87)). The experiment is described as follows: ELISA; apparent.
The target in experiment [3] is ZIKV strain PF13 envelope (E) protein on virions (Zika virus (strain PF13), UniProt A0A024B7W1). The experiment is described as follows: ELISA; apparent. In general terms: In an ELISA, binding on a coated surface is turned into a signal by an enzyme label.
Experiment [4] deals with DENV4 strain 1-0093 envelope (E) protein on virions (Dengue virus 4 (strain 1-0093)). The experiment is described as follows: ELISA; apparent.
For experiment [5], the target named is DENV2 strain 16681 envelope (E) protein on virions (Dengue virus 2 (strain 16681)). The experiment is described as follows: ELISA; apparent.

B1: K^L66A C10 mAb mutant (IgG1) (antibody, V domains shown)
VH: EVQLVESGAEVKKPGASVKVSCKASGYTFTSYAMHWVRQAPGQRLEWMGWINAGNGNTKYSQKFQDRVTITRDTSASTAYMELSSLRSEDTAIYYCARDKVDDYGDYWFPTLWYFDYWGQGTLVTVSS
VL: QSALTQPASVSGSPGQSITISCTGTSSDVGGFNYVSWFQQHPGKAPKLMLYDVTSRPSGVSSRFSGSASGNTASLTISGLQAEDEADYYCSSHTSRGTWVFGGGTKLTVL
As to B1, the Kd in experiment [1] was found to be 40.3 nM.

B2: C10 intact bivalent IgG1 (human monoclonal antibody EDE1 C10) (antibody, V domains shown)
VH: EVQLVESGAEVKKPGASVKVSCKASGYTFTSYAMHWVRQAPGQRLEWMGWINAGNGNTKYSQKFQDRVTITRDTSASTAYMELSSLRSEDTAIYYCARDKVDDYGDYWFPTLWYFDYWGQGTLVTVSS
VL: QSALTQPASVSGSPGQSITISCTGTSSDVGGFNYVSWFQQHPGKAPKLMLYDVTSRPSGVSSRFSGSKSGNTASLTISGLQAEDEADYYCSSHTSRGTWVFGGGTKLTVL
On to B2, for which the Kd in experiment [1] amounted to 16.2 nM; in experiment [2], 2.03 nM; in experiment [3] it was 0.41 nM; in experiment [4], 1.42 nM.

B3: C10 monovalent antigen binding fragment (Fab) (Fab, V domains shown)
VH: EVQLVESGAEVKKPGASVKVSCKASGYTFTSYAMHWVRQAPGQRLEWMGWINAGNGNTKYSQKFQDRVTITRDTSASTAYMELSSLRSEDTAIYYCARDKVDDYGDYWFPTLWYFDYWGQGTLVTVSS
VL: QSALTQPASVSGSPGQSITISCTGTSSDVGGFNYVSWFQQHPGKAPKLMLYDVTSRPSGVSSRFSGSKSGNTASLTISGLQAEDEADYYCSSHTSRGTWVFGGGTKLTVL
As to B3, the Kd in experiment [2] was 165 nM; in experiment [3] it was 1.16 nM; in experiment [4] it was 29.2 nM; in experiment [5], 38.8 nM.
